Results on 7 molecules are retold here after patent US20160009788A1 (UNITED STATES OF AMERICA AS REPRESENTED BY THE SECRETARY …, published 2016).

Usually Kd stands for the equilibrium constant for the complex coming apart. In general, koff refers to the first-order rate constant of dissociation. The term kon denotes the rate constant with which the complex forms. Read a low kon as slower complex formation.

The chains are these.
B1: anti-GII.4 NV Fab G3 (Fab, V domains shown)
VH: EVQLEQSGGGLVKPGGSLRLSCAGSGFSFSAHTINWVRQAPGKGLEWVGFIRSQAQGGTREYAASVKGRIILSRDDSENSAYLQMNSLNTGDTAVYYCARDSSRGYYSYYLDVWGKGTTVTVSS
VL: ELTQSPSSLSASVGDRVTITCRASQGISNRLNWYQQKPGKAPKLLIYDASSLESGVPSRFSGSGSGTDFTLTISSQQPEDFATYYCQQFNSYPLTFGGGTKVEIKR
B2: anti-GII.4 NV Fab C9 (Fab, V domains shown)
VH: EVQLEESGGVLVKPGGSLRLSCAASGFTFSSHAMHWVRQAPGKGLEWVAIINSGHRADYADSVKDRFTISRDNSKNTLYLQMDSLRPEDTAFYYCAREGDQQDVAD
VL: ELTQSPSTLSASVGDRVTITCRASEDIMSYLAWYQQKPAKAPRLLIYYASSLQSGVPSRFSGSGSGTEFTLTISSLQPEDFATYYCQQLHTFPITFGPGTRLDIKRT
B3: anti-GII.4 NV Fab D4 (Fab, V domains shown)
VH: EVQLVESGPGLVKPSETLSLTCAVSGASIRRANWWGWIRQAPGKGLEWLGSIFINAGTIYNPSLTGRVTVSADTSKNLFSLKLGSVTAADTAVYYCVKSYGDGDDNYNSFYYYMDVWGKGTSVIVSS
VL: DVVMTQSPSSLSASVGDRVTITCRASQDIRNNLAWYQHKPGKAPKLLIYYASKLQSGVPLRFSGSGSGTDYTLFISSLQPEDFATYYCQQYKTDTPYSFGQGTKVDIKR
B4: anti-GII.4 NV Fab B72 (Fab, V domains shown)
VH: EVQLEQSGAEVKKPGSSVKVSCKISGGTFSRHPISWVRQAPGQGLLWMGAIILRAGTTKYEQRFQGRITITADESTGTAYMELHSLTSEDTGLYFCATDRMGTFDELLFDSWGQGTLVTVSS
VL: ELQMTQSPASLSASVGDRVTITCRASQGIRNNLGWYQQKPGKPPKLLIYAASTLQSGVPSRFSGSGSGTGFTLTISSLQPEDFATYYCLQDYDFPLTFGGGTKVEIKR
B5: anti-NV Fab F11 (Fab, V domains shown)
VH: EVQLVETGGSLVQPGGSLRLSCAASGFSVSIYHMSWVRQAPGKGLEWVSLLYSGGSTYYADSVKGRFTISRDNSKNTLYLQMNSLRAEDTAVYYCARDYSGSWVGDEARSYYYYYYMDVWGKGTTVTVS
VL: ELQVTQSPSSLSASVGDRVTITCQASQDISYYLNWYQQRPGKVPKLLIYSASYLHSGVPSRFSGSGSGTDFTLTISSLQPEDVATYYCQRTYNAPYTFGQGTKVEIKR
B6: anti-NV Fab B7 (Fab, V domains shown)
VH: EVQLEESGGDLVQPGGSLTLSCAASGFTFSRYWMSWVRQAPGKGPEWVASIKKDGSETFYADSVKGRFIISRDIAKTSLYLQMNSLRADDTAVYYCLRAWYSSAYDFWGQGTLVTVS
VL: ELELTQSPSSLSASVGDRVTITCRASQSISNYLNWYQQKPGKAPNLLIYYASTLQSGVPSRFSGSGSGTDFTLTISSLQPEDFATYYCQHGYGAIAFGQGTRLEIKR
B7: anti-NV Fab E5 (Fab, V domains shown)
VH: EVQLEQSGGGLIKPGGSLRLSCAASGFTFTKYVMHWVRQAPEKGLQWVSAIGGSGGSAWYADSVKGRFTISRDNSKNTLYLQMNSLRAEDTAVYYCARDHARYSGYNSPHEVDSWGQGTLVAVS
VL: ELELTQSPSSLSASVGDRVTITCRASQGISNYLAWYQQKPGKVPKLLIYAASTLQSGVPSRFSGSGSGTDFTLTISSLQPEDVATYYCQKYNSAPLTFGGGTKVEIKR
notes: also called ES [sic]

In the first experiment the target is MD145 virus-like particle (GII.4, capsid protein VP1) (Norovirus GII.4 strain MD145-12). Kind of experiment: SPR (Biacore 1000), Fab on MD145 virus-like particle. On the technique in general: In SPR one partner is held on a chip, and binding of the other changes the refractive index at the surface.
Consider B1, for which the Kd is 2.61 nM, the koff was 0.000421 s⁻¹ and the kon is 162000 M⁻¹ s⁻¹.
On to B2, for which the Kd is 27.7 nM, the koff is 0.00382 s⁻¹ and the association rate constant (kon) stood at 138000 M⁻¹ s⁻¹.
Molecule B3 came in with an equilibrium dissociation constant (Kd) of 0.121 nM, a koff of 0.000178 s⁻¹ and a kon of 1.47e+06 M⁻¹ s⁻¹.
B4 had a dissociation constant (Kd) of 0.351 nM, a koff of 5.66e-05 s⁻¹ and a kon of 161000 M⁻¹ s⁻¹.

For another experiment, the target named is T1, bovine serum albumin (bovine, UniProt P02769 25-607).
T1 construct: Control antigen; also called BSA
T1 sequence (P02769 25-607 limits assumed): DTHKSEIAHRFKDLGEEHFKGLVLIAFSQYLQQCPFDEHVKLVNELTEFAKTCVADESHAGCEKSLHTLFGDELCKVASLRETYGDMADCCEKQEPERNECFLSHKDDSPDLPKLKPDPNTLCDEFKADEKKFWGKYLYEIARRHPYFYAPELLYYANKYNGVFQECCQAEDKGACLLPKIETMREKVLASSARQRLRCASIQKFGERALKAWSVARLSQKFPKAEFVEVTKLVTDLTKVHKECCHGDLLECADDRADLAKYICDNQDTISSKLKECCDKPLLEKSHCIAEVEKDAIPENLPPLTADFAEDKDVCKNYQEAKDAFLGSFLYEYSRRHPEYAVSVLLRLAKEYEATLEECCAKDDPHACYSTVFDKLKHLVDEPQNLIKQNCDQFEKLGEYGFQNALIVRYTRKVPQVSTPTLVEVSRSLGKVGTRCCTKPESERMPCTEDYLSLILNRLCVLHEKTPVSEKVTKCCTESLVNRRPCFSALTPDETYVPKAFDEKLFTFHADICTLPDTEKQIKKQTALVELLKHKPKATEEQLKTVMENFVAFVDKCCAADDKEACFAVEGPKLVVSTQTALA
In words: ELISA, antigen on the solid phase, soluble Fab.
B5: the binding result is given as “no binding”.
B6: the binding result was “no binding”.
Still for that read-out and setting: next, B7: “no binding”.
